The values below come from US20030133935A1 (published 2003).

In this test the target is human tumor necrosis factor-α (TNFα) (human, UniProt P01375 77-233). Put plainly: cell-based or functional assay.
human tumor necrosis factor-α (TNFα), sequence (P01375 77-233): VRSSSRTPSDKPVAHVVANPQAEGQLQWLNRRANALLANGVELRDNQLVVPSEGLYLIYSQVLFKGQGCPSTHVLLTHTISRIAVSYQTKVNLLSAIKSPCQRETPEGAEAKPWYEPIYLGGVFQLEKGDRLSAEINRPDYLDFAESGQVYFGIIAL

B1: p55-sf2 TNF receptor/IgG1 fusion protein (Fc fusion)
chain: QVCPQGKYIHPQNNSICCTKCHKGTYLYNDCPGPGQDTDCRECESGSFTASENHLRHCLSCSKCRKEMGQVEISSCTVDRDTVCGCRKNQYRHYWSENLFQCFNCSLCLNGTVHLSCQEKQNTVCTCHAGFFLRENECVSCSNCKKSLECTKLCLPQIGTLVTVSS
On to B1, for which the “IC50: concentration of fusion protein required to inhibit 2 ng/ml (39.2 pM) TNFα by 50%, WEHI 164 cytotoxicity assay” value stood at 70 pM.

B2: chimeric mouse/human IgG1 anti-platelet mAb (7E3) (antibody, INN chains, looked up, V domains shown)
VH: EVQLQQSGTVLARPGASVKMSCEASGYTFTNYWMHWVKQRPGQGLEWIGAIYPGNSDTSYIQKFKGKAKLTAVTSTTSVYMELSSLTNEDSAVYYCTLYDGYYVFAYWGQGTLVTVSA
VL: EIVLTQSPVTLSVTPGDSVSLSCRASRDISNNLHWFQQTSHESPRLLIKYASQSMSGIPSRFSGSGSGTDFTLSINSVETEDFGMYFCQQTNSWPYTFGGGTKLEIK
modifications: IgG1
B2: the IL-6 secreted by FS-4 fibroblasts (ng/ml), rhTNF 0.3 ng/ml, antibody 4 µg/ml (no antibody: 1.36) is 1.6 ng/mL; the IL-6 secreted by FS-4 fibroblasts (ng/ml), rhTNF 1.5 ng/ml, antibody 4 µg/ml (no antibody: 2.00) stood at 1.96 ng/mL; the IL-6 secreted by FS-4 fibroblasts (ng/ml), rhTNF 7.5 ng/ml, antibody 4 µg/ml (no antibody: 2.56) is 2.16 ng/mL.
